Biological target: VEGF mitogenic receptors
Experiment: cell-based or functional assay

half-maximal activity, HUVEC mitogenesis ([3H]thymidine incorporation): 17 to 19 ng/mL
B1: recombinant human VEGF145, P15692 207-395 (ligand)
chain: APMAEGGGQNHHEVVKFMDVYQRSYCHPIETLVDIFQEYPDEIEYIFKPSCVPLMRCGGCCNDEGLECVPTEESNITMQIMRIKPHQGQHIGEMSFLQHNKCECRPKKDRARQEKKSVRGKGKGQKRKRKKSRYKSWSVCDKPRR

Reference: patent US20020065240A1
